The record followed here is publication PMC4006704.

Experiment [1] has as its target GST-Med19 (Drosophila melanogaster) (UniProt Q9VVL6). In words: pull-down; 35S-labelled Hox / homeodomain peptides on immobilised GST-Med19 (Figures 1E, S2).
For experiment [2], the target named is multiple GST-Hox proteins (Drosophila melanogaster). Briefly: pull-down; 35S-labelled Med19 (full length or deleted versions) probing immobilised GST-Hox fusions or GST-HDAntp; standard conditions, essentially as in ref. 68 (Figures 1A, 5A).

Consider “HD region of Drosophila Ubx, with its hexapeptide (HX), linker region and HD (wild-type) (domain or fragment)”, for which, in experiment [1], the percent of input bound is 7 % of input. The same measure, in the same setting: the figure for “HD region of crustacean Artemia Ubx (linker-shortened C-terminal region) (domain or fragment)” is 5 % of input.

B1: 35S-labelled full-length Med19 (Mediator complex subunit 19) (natural protein)
chain: MMSNYGNMMDSPKSSPHGGGRSPVVARQDSSGTLKTTISLGKTPTIIHTGPFYSMKEPPAKAELTGDKDLMTEYGLHHTLTKFKEKKFKESLASFLQNIPGINDLITHPVENSTLRSVIEKPPIGGKELLPLTPVQLAGFRLHPGPLPEQYRTTYVTPARKHKNKHKKQKHKDGVTTGQESTLLDSAGLETYEKKHKKQKRHEDDKERKKRKKEKKRKKKNQSPEPGVGLLPGGASLGGAAGVMGATSLGSLGGGPGGPGLSSLSASMGPGVVGNMNSFSSSMQMQQQQQMPMQQQQMSSGGLLGSVLGTSGGPGGGGGGGGGGGGGVGGSLLMSQF
modifications: 35S-labelled
As for B1, the percent of input bound in experiment [2] was > 5 % of input.
